Substrate in data set [1]: O=CC[C@H](O)C(=O)O
Put plainly: Malate semialdehyde reductase activity. It counts as biochemical, Metallosphaera sedula. The following applies: other: malate semialdehyde, NADH or NADPH, pH 7.5, 30° C., average of at least two independent experiments. The protocol: (§1) Test for Malate Semialdehyde Reductase Activity: (L)-Malate semialdehyde+NAD(P)H→(L)-2,4-dihydroxybutyric acid+NAD(P) Reaction scheme:
(§2) The assay mixture contained 200 mM Hepes (pH 7.5), 50 mM KCl, 5 mM MgCl2, 0.24 mM NADH or NADPH, and appropriate amounts of purified enzyme or cell extract. Reactions were started by adding 10 mM (L)-malate semialdehyde (malate semialdehyde was prepared freshly for each test, see Example 3). Enzymatic assays were carried out at 30° C. in 96-well flat bottomed microtiter plates in a final volume of 250 μL. The reactions were followed by the characteristic absorption of NAD(P)H at 340 nm (εNADPH=6.22 mM^−1 cm^−1) in a microplate reader (BioRad 680XR).
Site-directed mutagenesis was carried out using the oligonucleotide pairs listed in Table 6 and the pET28-Mse-SSR plasmid as the template. Point mutations to change the amino acid sequences were introduced by PCR (Phusion 1U, HF buffer 20% (v/v), dNTPs 2.5 mM, direct and reverse primers 1 μM each, template plasmid 200 ng, water). When possible, plasmids created by PCR contained new restriction sites (introduced using silent mutations) in addition to the functional mutation to facilitate identification of mutated clones. The PCR products were digested by DpnI at 37° C. for 2×2 h to remove template DNA, and transformed into NEB DH5-α competent E. coli cells (NEB). The mutated plasmids were identified by restriction site analysis and verified to carry the desired mutations by DNA sequencing.

Substrate in data set [2]: O=CC[C@H](O)C(=O)O
Put plainly: Malate semialdehyde reductase activity. It counts as biochemical, Metallosphaera sedula. The settings on record: other: malate semialdehyde, NADH or NADPH, pH 7.5, 30° C., average of at least two independent experiments. The protocol:
To identify a suitable 2,4 DHB dehydrogenase, beta-hydroxyacid dehydrogenases from different biological sources were tested for their ability to reduce malate semialdehyde. […] The genes YPR1, 4hbdh, yqhD, and Ms-SSR were amplified using primers listed in Table 5 and cloned into vector pET28 (restriction enzymes see Table 5) yielding plasmids pET28-Sce-YPR1, pET28-Pgi-4-hbdh, pET28-Eco-yqhd and pET28-Mse-SSR, respectively. The proteins were expressed and purified as described in Example 1.
as §1, §2
The source holds these as a separate data set.

Substrate in data set [3]: O=CC(=O)O
Kind of data set: Malyl-CoA lyase assay coupled to citrate synthase / DTNB. The format is biochemical, M. extorquens. The following applies: other: pH 7.5, 37° C., 1 mM acetyl-CoA. The text has this:
Construction of plasmids containing wild-type genes coding for malyl-CoA lyase: The DNA sequences of the mcl genes coding for malyl-CoA lyase in M. extorquens (Arps et al., 1993) and Rhodobacter capsulatus (Meister et al., 2005) were optimized for the expression in Escherichia coli using the GENEius software (Eurofins). The optimized sequences were synthesized by Eurofins MWG OPERON® adding NheI and EcoRI restriction sites upstream of the start codon and downstream of the stop codon of mcl, respectively, which allowed direct cloning of the synthesized DNA fragments into the pET28a+ vector (Novagen) using T4 DNA ligase (Biolabs). […]
Malyl-CoA lyase activity was assayed using a method adapted from (Meister et al., 2005). Malyl-CoA synthesis by malyl-CoA lyase was coupled to the citrate synthase-catalyzed release of coenzyme A which was monitored by its spontaneous reaction with DTNB. […]
The reaction mixture according to Assay 1 contained 50 mM MOPS/KOH (pH 7.5), 0.25 mM DTNB, 5 mM MgCl2, 1 mM acetyl-CoA, 20 U/mL citrate synthetase (all products from Sigma), and appropriate amounts of purified malyl-CoA lyase or cell extract. […] The reactions were followed by the characteristic absorption of DNTB at 412 nm (εDNTB+CoA=13.6 mM^−1 cm^−1) in a microplate reader (BioRad 680XR).

Substrate in data set [4]: O=CCCC(=O)O
Kind of data set: purified protein, by the assay type. The following applies: other: oxidative sense, 1 mM NADP, 0.5 mM coenzyme A, pH 9, 37° C., pH 9.0.

Substrate in data set [5]: CC(C)(COP(=O)(O)OP(=O)(O)OC[C@H]1O[C@@H](n2cnc3c(N)ncnc32)[C@H](O)[C@@H]1OP(=O)(O)O)[C@@H](O)C(=O)NCCC(=O)NCCSC(=O)CCC(=O)O
Kind of data set: purified protein, by the assay type. The settings on record: other: reductive sense, succinyl-CoA added directly, NADPH, pH 7.5, 37° C., pH 7.5.

Substrate in data set [6]: O=CC[C@H](O)C(=O)O
Kind of data set: purified protein, by the assay type. It counts as biochemical, Sulfolobus tokodaii. The following applies: other: oxidative sense, 1 mM NADP, 0.5 mM coenzyme A, pH 9, 37° C. The protocol: NCBI references of the utilized mcr and sucD protein sequences, and the references for the corresponding natural and synthetic DNA sequences are listed in Table 2.
To purify St-Mcr, frozen cell pellets of expression cultures were resuspended in 0.5 mL of breakage buffer (50 mM Hepes, 300 mM NaCl, pH 7.5) and broken open by four successive rounds of sonication (sonication interval: 20 sec, power output: 30%, sonicator: Bioblock Scientific, VibraCell™ 72437). Cell debris were removed by centrifuging the crude extracts for 15 min at 4° C. at 13000×g and retaining the clear supernatant. Native proteins of E. coli were removed by heat precipitation at 85° C. during 30 min followed by centrifugation at 13000×g. […]
Assay 1 (Reaction Scheme): glyoxylate+acetyl-CoA→malyl-CoA+acetate Malyl-CoA lyase: (L)-Malyl-CoA+NADPH→(L)-Malate semialdehyde+Coenzyme A+NADP Malyl-CoA reductase: Assay 2 (Reaction Scheme): (L)-Malate semialdehyde+Coenzyme A+NADP→(L)-Malyl-CoA+NADPH The reaction mixture according to Assay 1 contained 50 mM MOPS/KOH (pH 7.5), 10 mM glyoxylate, 4 mM acetyl-CoA, 5 mM MgCl2, 0.25 mM NADPH (all products from Sigma), 5 U/mL of malyl-CoA lyase, and appropriate amounts of purified malyl-CoA reductase or cell extract. […] The reactions were followed by the characteristic absorption of NADPH at 340 nm (εNADPH=6.22 mM^−1 cm^−1) in a microplate reader (BioRad 680XR). […]

The record followed here is patent US9890400B2, “Method of production of 2,4-dihydroxybutyric acid” (ADISSEO FRANCE S.A.S., priority 2012, dated 2018).

Residue numbers refer to the chain shown, from its start. Numbers in names are those of the source.

B1: Metallosphaera sedula succinic semialdehyde reductase (Ms-SSR) mutant H39R, SEQ ID No. 32 (Metallosphaera sedula DSM 5348; H39R) (protein)
chain: MKAAVLHTYKEPLSIEDVNISQPKAGEVKIKVKATGLCRSDVNVFEGKTPVPPPVVAGHEISGIVEEVGPGVTRVKPGDRVISAFIHPCGKCGNCVAGKENLCETFSQVRLKGVMPDGTSRLSKDGKEIRTFLGGGFAEYAIVGENALTRVPEDMDLEKVAVLGCAGLTGYGAISSSKIEPGDTVAVIGVGGVGLSTIQLLRASGAGRIIAVGTKKWKLDRAMELGATDVVNSKEIDPVKAIKEITGGGPQVVIEAGGNEDTIHMALDSVRIGGKVVLVGLPPATAMIPIRVASIVRGGIEVVGNYGGRPRVDMPKLLELVRQGRYDPSRLVTGRFRLEEINEAVKMLEEGEAIRSLIIP
Usually Km stands for the concentration of substrate that gives half-maximal velocity. On to B1, for which the Michaelis-Menten constant (Km) in data set [1] worked out at 1000 µM.

B2: Metallosphaera sedula succinic semialdehyde reductase (Ms-SSR), wild type, SEQ ID No. 16 (Metallosphaera sedula DSM 5348) (protein)
chain: B1 chain with R39H
notes: full length 360 aa
On to B2, for which, in data set [2], the Michaelis-Menten constant (Km) amounted to 4000 µM.

B3: Metallosphaera sedula succinic semialdehyde reductase (Ms-SSR) double mutant H39R N43H, SEQ ID No. 36 (Metallosphaera sedula DSM 5348; H39R/N43H) (protein)
chain: B1 chain with N43H
Regarding B3, in data set [1], the Km amounted to 1000 µM.

B4: Metallosphaera sedula succinic semialdehyde reductase (Ms-SSR) mutant N43H, SEQ ID No. 34 (Metallosphaera sedula DSM 5348; N43H) (protein)
chain: B1 chain with R39H, N43H
For B4, in data set [1], the Km is 5000 µM.

B5: M. extorquens malyl-CoA lyase (Me-Mcl), wild type, SEQ ID No. 1 (Methylorubrum extorquens AM1) (protein)
chain: MSFTLIQQATPRLHRSELAVPGSNPTFMEKSAASKADVIFLDLEDAVAPDDKEQARKNIIQALNDLDWGNKTMMIRINGLDTHYMYRDVVDIVEACPRLDMILIPKVGVPADVYAIDVLTTQIEQAKKREKKIGFEVLIETALGMANVEAIATSSKRLEAMSFGVADYAASTRARSTVIGGVNADYSVLTDKDEAGNRQTHWQDPWLFAQNRMLVACRAYGLRPIDGPFGDFSDPDGYTSAARRCAALGFEGKWAIHPSQIDLANEVFTPSEAEVTKARRILEAMEEAAKAGRGAVSLDGRLIDIASIRMAEALIQKADAMGGK
notes: full length 324 aa
The term Vmax denotes the top rate of the reaction or transport when substrate is in excess. As to B5, in data set [3], the Michaelis constant (Km) was found to be 500 µM and the Vmax is 36 μmol/(min mg prot).

B6: Sulfolobus tokodaii malonyl-CoA reductase (St-Mcr), wild type, SEQ ID No. 7 (Sulfurisphaera tokodaii str. 7) (protein)
chain: MILMRRTLKAAILGATGLVGIEYVRMLSNHPYIKPAYLAGKGSVGKPYGEVVRWQTVGQVPKEIADMEIKPTDPKLMDDVDIIFSPLPQGAAGPVEEQFAKEGFPVISNSPDHRFDPDVPLLVPELNPHTISLIDEQRKRREWKGFIVTTPLCTAQGAAIPLGAIFKDYKMDGAFITTIQSLSGAGYPGIPSLDVVDNILPLGDGYDAKTIKEIFRILSEVKRNVDEPKLEDVSLAATTHRIATIHGHYEVLYVSFKEETAAEKVKETLENFRGEPQDLKLPTAPSKPIIVMNEDTRPQVYFDRWAGDIPGMSVVVGRLKQVNKRMIRLVSLIHNTVRGAAGGGILAAELLVEKGYIEK
notes: full length 359 aa
B6: the Km in data set [4] was 1150 µM; in data set [5], 200 µM; in data set [6] it was 250 µM. For the same protein, the Vmax in data set [4] was 1.7 µmol/min/mg; in data set [5] it was 0.98 ± 0.17 µmol/min/mg; in data set [6] it was 0.1 µmol/min/mg.
